B1: Azoarcus group I ribozyme (parent)
chain: GUGCCUUGCGCCGGGAAACCACGCAAGGGAUGGUGUCAAAUUCGGCGAAACCUAAGCGCCCGCCCGGGCGUAUGGCAACGCCGAGCCAAGCUUCGGCGCCUGCGCCGAUGAAGGUGUAGAGACUAGACGGCACCCACCUAAGGCAAACGCUAUGGUGAAGGCAUAGUCCAGGGAGUGGCGAAAGUCACACAAACCGG

The variants in the series derive from B1. In words: reverse-splicing fitness (ratio to wild type); higher = more active; in vitro selection; Mg2+ level not given. An outline of the steps:
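An in vitro group I ribozyme library with randomized positions was T7-transcribed and gel-purified. In triplicate, 10 pmol RNA in EPPS pH 7.5 was reacted with 50 pmoles of a 30-nt RNA substrate for 1 h at 37 °C across several added MgCl2 levels (1–48 mM), then stopped with EDTA. Products were reverse transcribed from a substrate-complementary primer, PCR-amplified and sequenced (HiSeq 4000). Fitness is a variant's read proportion after selection over that before, normalised to wild type.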
C82U A120C A145C C169A U176A: the reverse-splicing fitness amounted to 0.00575.

Turning to C82U A120C A145C C169A U176C, the reverse-splicing fitness turned out to be 0.00368.

Take C82U A120C A145U C169G U176A: the reverse-splicing fitness turned out to be 0.00692.

As to C82U A120C A145U C169G U176C, the reverse-splicing fitness was 0.00836.

On to C82U A120C A145U C169G U176G, for which the reverse-splicing fitness came to 0.00338.

Turning to C82U A111U A145U C169G U176A, the reverse-splicing fitness was 0.0101.

C82U A111U A145U C169G U176G: the reverse-splicing fitness turned out to be 0.0053.

As to C82U A111U A145U C169G U176C, the reverse-splicing fitness is 0.0101.

On to C82U A111U A145U C169A U176G, for which the reverse-splicing fitness is 0.00592.

For C82U A111U A145U C169A U176C, the reverse-splicing fitness was 0.00904.

In the case of C82U A111U A145U C169A U176A, the reverse-splicing fitness turned out to be 0.00935.

Take C82U A111U C150U C169G U176A: the reverse-splicing fitness is 0.013.

Turning to C82U A111U C150U C169G U176G, the reverse-splicing fitness came to 0.00639.

For the variant C82U A111U C150U C169G U176C, the reverse-splicing fitness is 0.0162.

For C82U A120C, the reverse-splicing fitness was 0.167.

With C82U A111U C150U U176A, the reverse-splicing fitness is 0.0519.

In the case of C82U A111U C150U U176C, the reverse-splicing fitness came out at 0.0816.

For the variant C82U A111U C150U U176G, the reverse-splicing fitness was determined as 0.0154.

For the variant C82U A120C A145G C150U C169U U176A, the reverse-splicing fitness is 0.0165.

For C82U A120C A145G C150U C169U U176C, the reverse-splicing fitness came to 0.0169.

As to C82U A120C A145G C150U C169U U176G, the reverse-splicing fitness stood at 0.00416.

For the variant C82U A111U A145U C150G C169U, the reverse-splicing fitness came to 0.00858.

For the variant C82U A111U A145U C150G C169A, the reverse-splicing fitness came to 0.00958.

Regarding C82U A111U A145U C150G C169G, the reverse-splicing fitness is 0.0071.

For C82U A120C A145G C150U U176C, the reverse-splicing fitness turned out to be 0.0637.

For C82U A120C A145G C150U U176A, the reverse-splicing fitness stood at 0.0355.

For the variant C82U A120C A145G C150U U176G, the reverse-splicing fitness came out at 0.00907.

In the case of C82U A120C A145C C169U U176G, the reverse-splicing fitness amounted to 0.00368.

On to C82U A120C A145C C169U U176A, for which the reverse-splicing fitness came out at 0.0191.

As for C82U A120C A145C C169U U176C, the reverse-splicing fitness turned out to be 0.0127.

Consider C82U A120C A145U C150A C169U U176A, for which the reverse-splicing fitness was found to be 0.0155.

In the case of C82U A120C A145U C150A C169U U176C, the reverse-splicing fitness came out at 0.0164.

As for C82U A120C A145U C150A C169U U176G, the reverse-splicing fitness is 0.00413.

As for C82U A120C A145G C150U C169U, the reverse-splicing fitness was 0.0209.

As for C82U A120C A145G C150U C169A, the reverse-splicing fitness stood at 0.0101.

Regarding C82U A120C A145G C150U C169G, the reverse-splicing fitness turned out to be 0.00809.

Turning to C82U A120C A145G C150G C169U U176G, the reverse-splicing fitness worked out at 0.00619.

Turning to C82U A120C A145G C150G C169U U176C, the reverse-splicing fitness stood at 0.0111.

Turning to C82U A120C A145G C150G C169U U176A, the reverse-splicing fitness amounted to 0.0113.

In the case of C82U A120C A145G C150G C169G U176A, the reverse-splicing fitness came out at 0.00987.

For C82U A120C A145G C150G C169G U176C, the reverse-splicing fitness was 0.0118.

On to C82U A120C A145G C150G C169G U176G, for which the reverse-splicing fitness came out at 0.00504.

Turning to C82U A120C A145C C150G C169A U176C, the reverse-splicing fitness was 0.0042.

For the variant C82U A120C A145C C150G C169A U176G, the reverse-splicing fitness came out at 0.00379.

Turning to C82U A120C A145C C150G C169A U176A, the reverse-splicing fitness came out at 0.00866.

Regarding C82U A120C A145U C150A, the reverse-splicing fitness was 0.021.

On to C82U A120C A145U C150G, for which the reverse-splicing fitness amounted to 0.0217.

Take C82U A120C A145U C150U: the reverse-splicing fitness came to 0.109.

In the case of C82U A120C A145G C150A C169A U176A, the reverse-splicing fitness was found to be 0.0175.

On to C82U A120C A145G C150A C169A U176C, for which the reverse-splicing fitness stood at 0.0203.

For C82U A120C A145G C150A C169A U176G, the reverse-splicing fitness was found to be 0.00547.

For the variant C82U A120C A145U C150A C169G, the reverse-splicing fitness turned out to be 0.00588.

As to C82U A120C A145U C150A C169U, the reverse-splicing fitness was found to be 0.00769.

C82U A120C A145U C150A C169A: the reverse-splicing fitness worked out at 0.00683.

In the case of C82U A120C A145C C150A U176A, the reverse-splicing fitness is 0.00873.

Take C82U A120C A145C C150A U176G: the reverse-splicing fitness worked out at 0.00472.

As to C82U A120C A145C C150A U176C, the reverse-splicing fitness amounted to 0.00962.

In the case of C82U A111U C150U C169U, the reverse-splicing fitness amounted to 0.0102.

For the variant C82U A111U C150U C169G, the reverse-splicing fitness was found to be 0.00892.

As to C82U A111U C150U C169A, the reverse-splicing fitness is 0.00856.

Turning to C82U A120C A145G C150G C169A U176G, the reverse-splicing fitness was determined as 0.00772.

For C82U A120C A145G C150G C169A U176C, the reverse-splicing fitness was found to be 0.0131.

For the variant C82U A120C A145G C150G C169A U176A, the reverse-splicing fitness was 0.0124.

Take C82U A111U A145U C150A C169G U176G: the reverse-splicing fitness is 0.00594.

As for C82U A111U A145U C150A C169G U176A, the reverse-splicing fitness turned out to be 0.011.

As to C82U A111U A145U C150A C169G U176C, the reverse-splicing fitness turned out to be 0.0121.

Turning to C82U A120C A145G C150A C169G, the reverse-splicing fitness turned out to be 0.00829.

For C82U A120C A145G C150A C169U, the reverse-splicing fitness is 0.0116.

As for C82U A120C A145G C150A C169A, the reverse-splicing fitness amounted to 0.00919.

Take C82U A111U C169U U176G: the reverse-splicing fitness worked out at 0.00559.

C82U A111U C169U U176A: the reverse-splicing fitness amounted to 0.0149.

For C82U A111U C169U U176C, the reverse-splicing fitness came out at 0.013.

For the variant C82U A120C A145G C150A C169G U176G, the reverse-splicing fitness worked out at 0.00377.

For C82U A120C A145G C150A C169G U176A, the reverse-splicing fitness is 0.0157.

With C82U A120C A145G C150A C169G U176C, the reverse-splicing fitness is 0.0219.

Consider C82U A120C A145G C169U U176G, for which the reverse-splicing fitness was determined as 0.00344.

As for C82U A120C A145G C169U U176C, the reverse-splicing fitness worked out at 0.0171.

Take C82U A120C A145G C169U U176A: the reverse-splicing fitness came out at 0.0177.

With C82U A120C A145U C150G C169U U176A, the reverse-splicing fitness was 0.00974.

As for C82U A120C A145U C150G C169U U176G, the reverse-splicing fitness is 0.00467.

For C82U A120C A145U C150G C169U U176C, the reverse-splicing fitness is 0.0116.

Take C82U A111U C150G C169U U176A: the reverse-splicing fitness came to 0.00687.

As to C82U A111U C150G C169U U176C, the reverse-splicing fitness is 0.0106.

As to C82U A111U C150G C169U U176G, the reverse-splicing fitness was 0.00604.

(Values after the RNAGym collection of RNA variant scans (doi:10.1093/molbev/msab373).)
